# Assay results taken from patent publication US20050037969A1 (ARBOR VITA, published 2005).
# Ends that are not written are not given here. * marks the point of attachment. Biotin = O=C1N[C@H]2[C@H](CS[C@H]2CCCCC(=O)*)N1
# T1: KIAA0807 (PDZ domain)-GST fusion protein (human, UniProt Q6P0Q8 1104-1192)
# T1 construct: also called K807; KIAA807; not shown: glutathione S-transferase encoded by vector pGEX-3X (Pharmacia)
# T1 sequence: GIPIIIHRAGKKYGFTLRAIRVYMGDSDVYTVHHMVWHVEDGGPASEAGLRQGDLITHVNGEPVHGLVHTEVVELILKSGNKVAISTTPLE
# T2: GST-41.8 kD protein (KIAA0751) PDZ domain fusion protein (Mus musculus (Mouse), UniProt Q9EQZ7 682-763)
# T2 construct: also called 41 kd; hypoth; not shown: glutathione S-transferase encoded by vector pGEX-3X (Pharmacia)
# T2 sequence: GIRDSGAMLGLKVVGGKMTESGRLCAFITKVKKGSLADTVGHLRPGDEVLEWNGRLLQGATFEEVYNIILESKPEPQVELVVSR
# Experiments:
# [1] = target: T3, GST-PSD95 fusion protein (PDZ domains 1-3) (human, UniProt P31016 56-395 (rat entry)); test: G assay: biotinylated peptide on plate-bound GST-PDZ fusion, OD 450 nm
# T3 construct: also called human post-synaptic density protein 95; not shown: glutathione S-transferase encoded by vector pGEX-3X (Pharmacia)
# [2] = target: T1, KIAA0807 (PDZ domain)-GST fusion protein; test: G assay competition against 10 uM DOCK2 20-mer; acetyl-STDL competing against 10 uM DOCK2 20-mer
# [3] = target: T1, KIAA0807 (PDZ domain)-GST fusion protein; test: G assay competition against 1 uM BLR-1 20-mer
# [4] = target: T2, GST-41.8 kD protein (KIAA0751) PDZ …; test: G assay competition on plate-bound GST-41.8kD; blocked ligand: 20 uM biotinylated CD49E peptide
# [5] = target: T3, GST-PSD95 fusion protein (PDZ domains …); test: G assay competition on plate-bound GST-PSD95, competitor at 100 uM; blocked ligands: biotinylated Clasp 2 and CD46 (20 uM), Fas and KV1.3 (10 uM) peptides
# [6] = target: T1, KIAA0807 (PDZ domain)-GST fusion protein; test: G assay competition against 10 uM DOCK2 20-mer; 8-mer DOCK2 peptide competing against 10 uM DOCK2 20-mer
# T3 sequence (P31016 other isoform, or with tags, fused parts or gaps): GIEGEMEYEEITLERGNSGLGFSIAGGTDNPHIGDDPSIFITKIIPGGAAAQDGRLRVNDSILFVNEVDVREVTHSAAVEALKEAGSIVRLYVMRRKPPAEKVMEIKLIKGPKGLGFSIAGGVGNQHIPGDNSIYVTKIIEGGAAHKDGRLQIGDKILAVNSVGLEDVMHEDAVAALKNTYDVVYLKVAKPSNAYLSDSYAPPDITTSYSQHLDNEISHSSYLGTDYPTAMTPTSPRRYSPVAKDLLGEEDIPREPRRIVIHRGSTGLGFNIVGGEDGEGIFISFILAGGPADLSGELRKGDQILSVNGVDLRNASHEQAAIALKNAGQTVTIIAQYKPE
binder,measurement,setting,value
"Biotin-TIYENLAPVTTFGKTIA (Not the same peptide as m50 (AA19L, ending GYIA); the key gives AA55L for peptide 30; also called CD148) [30]",binding result,[1],no binding
Ac-STDL (it is an N-acetyl tetrapeptide) [acetyl-STDL],IC50,[2],< 250 µM
Ac-LTTF (it is an N-acetyl tetrapeptide) [acetyl-LTTF],IC50,[3],1 µM
ATSDA (also called 5-mer CD49E peptide ATSDA) [CD49E 5mer],binding result,[4],binds
RNEIQSLV (also called FAS-8-mer; 8-mer peptide corresponding to the C-terminus of CD95 (Fas)) [Fas (CD95) 8-mer competitor peptide RNEIQSLV (unlabeled)],binding result,[5],binds
NATSLTTF (also called BLR-1 8-mer) [8-mer peptide corresponding to the C-terminus of BLR-1],IC50,[3],> 100 µM
PDSLSTDL (also called DOCK2 8-mer) [8-mer peptide corresponding to the C-terminus of DOCK2],IC50,[6],250 µM
TTNNNPNSAVNIKKIFTDV (also called KV13 peptide) [unlabeled 19-mer having the sequence of the C-terminus of KV1.3 (non-biotinylated AA33L)],binding result,[5],binds
REVKFTSL [CD46 8-mer competitor peptide REVKFTSL (unlabeled)],binding result,[5],binds
